These results are taken from publication PMC10491678.

The target in this test is N-terminus His-tag cleaved rBPSL1038 (rBPSL1038-post-cleavage) (Burkholderia pseudomallei) (UniProt Q63W52). Briefly: SEC. In general terms: In gel filtration, larger molecules generally elute earlier.

The term stoichiometry N denotes the number of molecules, sites or subunits per partner or assembly.

Regarding “N-terminus His-tag cleaved rBPSL1038 (rBPSL1038-post-cleavage) (from UniProt Q63W52 1-88) (natural protein)”, the stoichiometry N turned out to be 2.
